Measured values taken from patent US20210395356A1 (Chugai, published 2021).
Numbering of substitutions follows the chain as printed.

T1: flag-tagged mouse LAP (mouse)
T1 construct: also called recombinant mouse latency associated protein (LAP); mouse latency associated peptide
T1 chain: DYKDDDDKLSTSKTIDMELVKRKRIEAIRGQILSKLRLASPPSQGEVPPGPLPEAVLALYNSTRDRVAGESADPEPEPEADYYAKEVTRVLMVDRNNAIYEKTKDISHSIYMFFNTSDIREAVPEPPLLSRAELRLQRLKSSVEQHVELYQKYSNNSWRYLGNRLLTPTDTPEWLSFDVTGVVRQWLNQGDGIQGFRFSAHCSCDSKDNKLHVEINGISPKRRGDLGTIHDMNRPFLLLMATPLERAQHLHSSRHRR

B1: hT0947AE08-SG191 (antibody, IgG1, V domains shown)
VH: QVQLVESGGGVVQPGRSLRLSCAASGFTFSSYAMNWIRQPPGKGLEWIGYIYTSGTRYRANWARGRFTISRDNSKNTLYLQMNSLRAEDTAVYYCARGTDIYDYYYWVMDLWGPGTLVTVSS
VL: DIQMTQSPSSLSASVGDRVTITCQASQSISTYLAWYQQKPGQPPKLLIYAASTLESGVPSRFSGSGSGTDFTLTISSLQPEDFATYYCQSYSDGDSVGFGQGTKVEIKR
notes: Humanized, optimized IgG1; also called hT0947AE08-5G191
B2: hT0947AE04-SG191 (antibody, IgG1, V domains shown)
VH: B1 VH with R57T, R59H, D100F, Y102W
VL: B1 VL with A50K, G94A
notes: Humanized, optimized IgG1
B3: hT0947AE09-SG191 (antibody, IgG1, V domains shown)
VH: B1 VH
VL: B1 VL with G94A
notes: Humanized, optimized IgG1; also called hT0947AE09-5G191; hT0947A09-SG191

Assays:
flag-tagged mouse LAP = biological target: T1, flag-tagged mouse LAP; assay: ELISA, plate coated with mouse LAP, anti-human IgG-HRP detection
mouse mature TGF-beta 1 = biological target: T2, mouse mature TGF-beta 1 (mouse, UniProt P04202 279-390); assay: ELISA, plate coated with mouse mature TGF-beta 1, anti-human IgG-HRP detection
T2 construct: mature
Procedure: (§1) 384-well plate was coated with mouse or human mature TGF-beta 1 for overnight at 4 degree C., and then washed four times with PBS-T. After washing, the plate was blocked with blocking buffer (1×TBS/Tween-20+0.5% BSA+1× Block ace) for at least 1 hour at room temperature, and then washed four times with PBS-T. After washing, an antibody solution was added to the plate and incubated for 2 hours at room temperature, and then washed four times with PBS-T. After washing, diluted secondary antibody (goat anti-human IgG-HRP, Abcam, Cat. ab98624) was added to the plate and incubated for 1 hour at room temperature, and then washed four times with PBS-T. After washing, TMB solution was added to the plate and incubated for 15 minutes at room temperature, then 1N sulfuric acid was added to stop the reaction. The absorbance (optical density; OD) was measured at 450 nm/570 nm.

human mature TGF-beta 1 = biological target: T3, human mature TGF-beta 1 (human, UniProt P01137 279-390); assay: ELISA, plate coated with human mature TGF-beta 1, anti-human IgG-HRP detection
T3 construct: mature
Procedure: as §1

[1] = biological target: T4, flag-tagged human latent TGF-beta 1 (human, UniProt P01137 34-390); assay: SPR Biacore 8k, antibody captured by anti-human kappa, latent TGF-beta 1 (SLC) as analyte, 37 C, 1:1 model
T4 construct: Small latent complex: homodimer of LAP and mature TGF-beta 1 held non-covalently; also called human latent TGF-beta 1 (SLC); hSLC
Procedure: (§2) Mouse anti-human Ig kappa light chain antibody (BD Pharmingen) was immobilized onto all flow cells of a CMS sensor chip using amine coupling kit (GE Healthcare). […] All antibodies and analytes were prepared in ACES pH 7.4 containing 20 mM ACES, 150 mM NaCl, 0.05% Tween 20, 0.005% NaN₃. Assay temperature was set at 37 degrees C. Sensor surface was regenerated each cycle with 10 mM Glycine-HCl, pH2.1. Binding activity was determined by processing and fitting the data to 1:1 binding model using Biacore Insight Software, version 1.1.1.7442 (GE Healthcare).

[2] = biological target: T5, flag-tagged cynomolgus monkey latent TGF-beta 1 (cynomolgus monkey, UniProt P01137 34-390 (human entry), limits assumed); assay: as above
T5 construct: also called monkey latent TGF-beta 1 (SLC); Cyno latent TGF-beta 1
Procedure: as §2

[3] = biological target: T6, flag-tagged mouse latent TGF-beta 1 (mouse, UniProt P04202 34-390); assay: as above
T6 construct: also called mouse latent TGF-beta 1 (SLC); mSLC
Procedure: as §2

T3 sequence (P01137 279-390 limits assumed): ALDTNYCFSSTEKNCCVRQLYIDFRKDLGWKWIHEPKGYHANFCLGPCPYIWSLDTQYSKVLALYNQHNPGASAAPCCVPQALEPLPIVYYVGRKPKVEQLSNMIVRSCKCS

| Binder | binding result (flag-tagged mouse LAP) | binding result (mouse mature TGF-beta 1) | binding result (human mature TGF-beta 1) | Kd [1] [nM] | koff [1] [s⁻¹] | kon [1] [M⁻¹ s⁻¹] | Kd [2] [nM] | koff [2] [s⁻¹] | kon [2] [M⁻¹ s⁻¹] | Kd [3] [nM] | koff [3] [s⁻¹] | kon [3] [M⁻¹ s⁻¹] |
| --- | --- | --- | --- | --- | --- | --- | --- | --- | --- | --- | --- | --- |
| B1 | binds | no binding (tested: 10 ug/mL) | no binding (tested: 10 ug/mL) | 1.13 | 0.00043 | 381000 | 1 | 0.000326 | 325000 | 1.1 | 0.000319 | 292000 |
| B2 | binds | no binding (tested: 10 ug/mL) |  |  |  |  |  |  |  | 1.89 |  |  |
| B3 | binds | no binding (tested: 10 ug/mL) | no binding (tested: 10 ug/mL) | 2.15 | 0.000727 | 339000 | 2.24 | 0.000659 | 294000 | 1.6 | 0.000388 | 243000 |
